Experimental data taken from patent US20080311122, “Antagonists of Hmgb1 and/or Rage and Methods of Use Thereof” (Medimmune, LLC, published 2008).

Legend:
[1] = biological target: T1, HMGB1 (native, calf/bovine thymus) (Bos taurus, UniProt P10103 P10103:2-215); assay: apparent Kd; intrinsic tryptophan fluorescence quench, 1.7 uM HMGB1, 1:10 DPBS, 25 C; conditions: tags: none; purified from bovine thymus at Medimmune; label: biotin (ELISA)
Procedure: Tryptophan emission for CpG-A binding to HMGB1: Fluorescence titrations and spectra of HMGB-1 were carried out at 25° C. with a SPEX Fluoromax-3 spectrofluorimeter, monitoring the HMGB-1 intrinsic tryptophan emission at 347 nm (8 nm bandwidth) with 280 nm excitation (3 nm bandwidth) in a masked capped dual-pathlength (0.2×1.0 cm) quartz cell (Hellma Cells, Inc., Jamaica, N.Y.) upon stepwise addition of CpG-A (0.5 mM) to a 1.7 μM solution of HMGB-1 in 1:10 Dulbecco Phosphate Buffered Saline (PBS) solution (Invitrogen, Carlsbad, Calif.). Complex formation between HMGB-1 and the nucleic acid was monitored by the change in the initial fluorescence of the protein. HMGB-1 fractional saturation was inferred from the ratio of observed fluorescence change to maximal change (at saturation), Fₗᵢₘ, for each of the nucleic acid additions. Binding affinity was calculated from graphs of relative fluorescence intensity versus [nucleic acid base]/[protein].The occluded binding site size (n) was derived from the intersection of the extrapolated initial slope with the limiting fluorescence plateau in the equilibrium binding isotherms. The measurements for assessment of Tryptophan emission are reviewed in detail in Lakowicz, 2000, Photochem. Photobiol. 72, 421-437.
The binding of immobilized HMGB1 to soluble CpG-A was determined by ELISA (FIG. 33, top left). […]

HMGB1 A-box peptide = biological target: T2, HMGB1 A-box peptide (Homo sapiens, UniProt P09429 SEQ:1-77); assay: affinity comparable to full-length HMGB1; data not shown; stated only as CpG DNA; conditions: protein: synthetic; tags: synthetic peptide, New England Peptide; label: biotin (ELISA)
T2 sequence: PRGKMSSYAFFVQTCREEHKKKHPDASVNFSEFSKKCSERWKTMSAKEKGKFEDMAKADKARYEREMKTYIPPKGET
Procedure: (§1) CpG ELISA: Proteins or peptides were diluted in PBS to the concentration of 5 μg/ml and coated onto plates at 4° C. o/n. Plates were blocked with 4% dry milk in PBS. Biotin labeled CpG-A alone or in complex with HMGB1 were incubated in the plates at 37° C. for 1 hr. and detected with HRP labeled strep-avidin.

HMGB1 B-box peptide = HMGB1 B-box peptide (Homo sapiens, UniProt P09429 SEQ:1-69); assay: as above; conditions: protein: synthetic; tags: synthetic peptide, New England Peptide; label: biotin (ELISA)
Procedure: as §1

HMGB1 + RAGE/Fc complex [2] = biological target: T3, HMGB1 + RAGE/Fc complex (Bos taurus / Mus musculus, UniProt P10103;Q62151 P10103:2-215,Q62151:23-340); assay: ELISA; CpG-A associates with immobilized RAGE/Fc only when pre-complexed with HMGB1; CpG-A lowers EC50 of HMGB1-RAGE binding 100-1000 fold; conditions: tags: thymus HMGB1; RAGE Fc fusion (R&D Systems); label: biotin (ELISA)
T3 chain 1: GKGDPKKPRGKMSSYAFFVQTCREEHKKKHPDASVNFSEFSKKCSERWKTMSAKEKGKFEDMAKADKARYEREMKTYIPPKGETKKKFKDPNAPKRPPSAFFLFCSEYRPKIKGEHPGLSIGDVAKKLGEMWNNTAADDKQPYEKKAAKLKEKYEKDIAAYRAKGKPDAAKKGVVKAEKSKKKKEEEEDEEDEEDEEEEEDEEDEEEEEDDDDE
T3 chain 2: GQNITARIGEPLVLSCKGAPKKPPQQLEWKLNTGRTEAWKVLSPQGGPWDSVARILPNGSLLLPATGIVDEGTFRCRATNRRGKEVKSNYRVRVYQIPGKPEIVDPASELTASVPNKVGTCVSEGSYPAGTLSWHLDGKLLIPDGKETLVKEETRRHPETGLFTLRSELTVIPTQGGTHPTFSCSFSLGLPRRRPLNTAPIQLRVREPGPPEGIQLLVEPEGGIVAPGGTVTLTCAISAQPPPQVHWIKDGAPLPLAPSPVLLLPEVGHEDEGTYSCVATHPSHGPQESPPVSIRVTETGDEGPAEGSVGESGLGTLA
Procedure: as §1

RAGE/Fc = biological target: T4, RAGE/Fc (Mus musculus, UniProt Q62151 Q62151:23-340); assay: ELISA, CpG-A alone on immobilized RAGE/Fc; conditions: tags: Fc fusion, R&D Systems; chain copies: 2; label: biotin (ELISA)
T4 chain: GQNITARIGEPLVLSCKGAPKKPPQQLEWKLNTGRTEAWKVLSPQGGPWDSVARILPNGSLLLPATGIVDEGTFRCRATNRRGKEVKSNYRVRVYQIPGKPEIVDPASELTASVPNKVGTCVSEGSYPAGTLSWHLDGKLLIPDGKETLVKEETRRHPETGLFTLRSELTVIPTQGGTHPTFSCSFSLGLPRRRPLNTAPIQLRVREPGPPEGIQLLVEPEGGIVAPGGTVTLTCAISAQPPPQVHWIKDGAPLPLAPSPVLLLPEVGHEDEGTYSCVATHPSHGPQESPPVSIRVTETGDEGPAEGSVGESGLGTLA

[3] = biological target: T1, HMGB1 (native, calf/bovine thymus); assay: non-stimulatory CpG-A control sequence bound; tryptophan fluorescence; conditions: tags: none; purified from bovine thymus at Medimmune
[4] = biological target: T1, HMGB1 (native, calf/bovine thymus); assay: data not shown; p546 states conversely that HMGB1 binds both A and B class ODN; conditions: tags: none; purified from bovine thymus at Medimmune
HMGB1 + RAGE/Fc complex [5] = biological target: T3, HMGB1 + RAGE/Fc complex; assay: HMGB1/CpG-B complex failed to augment binding to RAGE; data not shown; conditions: tags: thymus HMGB1; RAGE Fc fusion (R&D Systems)
[6] = biological target: T1, HMGB1 (native, calf/bovine thymus); assay: random DNA not bound; conditions: tags: none; purified from bovine thymus at Medimmune

Q: What does the source list for GGGGGACGATCGTCGGGGGG (ssDNA) [CpG-A (ODN2216)]?
A: Kd [1]: 70 nM; binding result (HMGB1 A-box peptide): binds; binding result (HMGB1 B-box peptide): binds; binding result (HMGB1 + RAGE/Fc complex [2]): binds; binding result (RAGE/Fc): no binding

Q: Does GGGGGAGCATGCTGGGGGGC (ssDNA) [control ODN for CpG-A (non-stimulatory)] bind [3]?
A: binds

Q: Does TCGTCGTTTTGTCGTTTTGTCGTT (ssDNA) [CpG-B (ODN 2006)] bind [4]?
A: no binding

Q: Does TCGTCGTTTTGTCGTTTTGTCGTT (ssDNA) [CpG-B (ODN 2006)] bind (HMGB1 + RAGE/Fc complex [5])?
A: no binding

Q: Does GGTCGTTCCATTTTACTCCAC (ssDNA) [random DNA ODN] bind [6]?
A: no binding
